Where two headings read alike, the source gives them in different places.
How the values were obtained:
Test in all cases: ITC
TIA-1 RRM2,3 [1] = biological target: T1, TIA-1 RRM2,3 (Homo sapiens, UniProt P31483-2 93-274)
T1 sequence: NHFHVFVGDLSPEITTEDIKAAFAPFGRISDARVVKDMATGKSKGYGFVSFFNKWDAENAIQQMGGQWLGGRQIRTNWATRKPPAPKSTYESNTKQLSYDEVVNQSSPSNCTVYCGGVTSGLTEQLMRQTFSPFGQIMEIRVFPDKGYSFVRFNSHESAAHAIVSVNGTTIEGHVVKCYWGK

TIA-1 RRM2,3 [2] = biological target: T1, TIA-1 RRM2,3; remark: listed apart in the source
TIA-1 RRM2,3 [3] = biological target: T1, TIA-1 RRM2,3; remark: listed apart in the source
TIA-1 RRM1,2,3 = biological target: T2, TIA-1 RRM1,2,3 (Homo sapiens, UniProt P31483-2 1-274)
T2 sequence: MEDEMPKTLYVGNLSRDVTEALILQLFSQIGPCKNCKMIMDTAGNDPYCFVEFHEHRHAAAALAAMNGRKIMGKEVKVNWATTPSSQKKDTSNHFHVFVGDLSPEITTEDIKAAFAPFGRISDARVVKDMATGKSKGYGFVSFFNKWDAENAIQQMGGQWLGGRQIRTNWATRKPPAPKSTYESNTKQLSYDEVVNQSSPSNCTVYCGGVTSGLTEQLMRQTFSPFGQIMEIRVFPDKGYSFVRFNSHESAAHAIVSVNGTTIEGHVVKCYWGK

**Q.** With UUUUUUUUU (ssRNA) [U9] as the binder, how does the Kd (TIA-1 RRM2,3 [1]) read?
**A.** Its Kd is 5.6 ± 1.9 nM.

**Q.** And the Kd (TIA-1 RRM2,3 [2])?
**A.** The Kd was 7 ± 0.2 nM.

**Q.** For UUCUCCUUUC (ssRNA) [fas_10], which Kd (TIA-1 RRM2,3 [3]) is on record?
**A.** The Kd was 35.6 ± 8.1 nM.

**Q.** UUUUUUUUUUUUUUU (ssRNA) [U15] was tested. Which Kd (TIA-1 RRM1,2,3) did it give?
**A.** Its Kd is 16.9 ± 2.7 nM.

From paper PMC4027183
